Source: patent US20220073609A1 (DENALI THERAPEUTICS, published 2022)
No end group written: not given here.

T1: Human TREM2 peptide (aa 149-163) (human, also: biotinylated)
T1 construct: also called truncated stalk peptide containing the ADAM10/17 cleavage site
T1 peptide: SFEDAHVEHSISRSL

T2: Mouse TREM2 peptide (aa 149-163) (mouse, UniProt Q99NH8 149-163, also: biotinylated)
T2 construct: range 149-163; also called truncated stalk peptide, mouse
T2 peptide (looked up): SFEGAQVEHSTSRNQ

T3: recombinant cynomolgus TREM2 ECD (cynomolgus, UniProt A0A2K5UY34 49-204)
T3 construct: extracellular domain; also called cyno TREM2
T3 sequence: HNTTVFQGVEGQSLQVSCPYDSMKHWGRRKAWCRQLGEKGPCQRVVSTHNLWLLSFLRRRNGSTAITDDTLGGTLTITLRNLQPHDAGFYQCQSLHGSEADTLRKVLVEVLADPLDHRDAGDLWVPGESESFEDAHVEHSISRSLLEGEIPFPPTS

T4: sTREM2 in cynomolgus CSF (cynomolgus monkey, UniProt A0A2K5UY34 49-187)
T4 construct: domain: soluble TREM2 (sTREM2); also called soluble TREM2 in healthy cynomolgus monkey CSF
T4 sequence: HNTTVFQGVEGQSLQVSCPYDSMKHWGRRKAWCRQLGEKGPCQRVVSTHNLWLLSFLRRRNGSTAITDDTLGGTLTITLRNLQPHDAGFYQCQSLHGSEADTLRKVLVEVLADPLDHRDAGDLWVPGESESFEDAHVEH


Legend:
[1] = target: Human TREM2 peptide (aa 129-172) (human); experiment: ELISA, biotinylated stalk peptide on streptavidin plate, anti-human kappa-HRP detection
[2] = target: Mouse TREM2 peptide (aa 131-169) (mouse) (UniProt Q99NH8); experiment: as above
[3] = target: T1, Human TREM2 peptide (aa 149-163); experiment: as above
Protocol: (§1) TREM2 antibodies were evaluated for binding to human and mouse TREM2 stalk region peptides. […] Antibody binding to TREM2 stalk peptides was detected using standard sandwich ELISA. Briefly, a 96-well half-area ELISA plate was coated with streptavidin overnight at 4° C. The following day, biotinylated TREM2 stalk peptides diluted in 1% BSA/PBS were added to the plate and incubated for 1 hour. Antibodies diluted in 1% BSA/PBS were then added and incubated for 1 hour. Antibodies bound to peptide were detected with anti-human kappa-HRP secondary antibody (Bethyl Laboratories, Inc.) diluted in 1% BSA/PBS. Plates were assayed by reaction with a detection reagent (One-step TMB Ultra, Thermo) and measurement of absorbance at 450 nm (A450) by standard spectrophotometry instrumentation (BioTek®). Data are shown as normalized values (fold over background where background=isotype control).

[4] = target: T2, Mouse TREM2 peptide (aa 149-163); experiment: as above
Protocol: as §1

[5] = target: T3, recombinant cynomolgus TREM2 ECD; experiment: SPR (Biacore 8K), antibody captured with Human Fab Capture Kit, recombinant TREM2 ECD injected, 1:1 fit
Protocol: (§2) Surface plasmon resonance (Biacore™ 8K instrument) was used to measure anti-TREM2 antibody affinities for human and cynomolgus TREM2 ECD. Anti-TREM2 antibodies were captured using Human Fab Capture Kit (GE Healthcare Life Sciences, Catalog No. 28958325) on a Biacore Series S CM5 sensor chip (GE Healthcare Life Sciences, Catalog No. 29149604). Serial 3-fold dilutions of recombinant human or cynomolgus TREM2 were injected at a flow rate of 30 μL/min. Antibody binding was monitored for 300 seconds, followed by monitoring of antibody dissociation for 600+ seconds in HBS-EP+ running buffer (GE Healthcare Life Sciences, Catalog No. BR100669). The binding response was corrected by subtracting the RU value from a blank flow cell. A 1:1 Languir model of simultaneous fitting of kₒₙ, and koff was used for kinetics analysis.

[6] = target: T3, recombinant cynomolgus TREM2 ECD; experiment: SPR (Biacore), cynomolgus TREM2
Protocol: as §2
(§3) The affinity of anti-TREM2 antibodies to human TREM2 and cynomolgus TREM2 were measured by Biacore (described in Example 1). The potency of anti-TREM2 antibodies were measured in healthy human volunteer CSF samples (Innovative Research) and healthy cynomolgus monkey CSF samples (Worldwide Primates), by MSD assay. The potency of each antibody was determined by its EC50. Briefly, MSD GOLD 96-well small spot streptavidin plates (MSD, Cat. No. L45SA) coated with capture antibody (biotinylated goat anti-human TREM2, R&D Systems, Cat. No. BAF1828) was incubated with biofluid samples diluted 1:3 in Assay Buffer (25% (v/v) MSD Blocker A (MSD, Cat. No. R93BA-A), 75% (v/v) TBST) for one hour at room temperature. After rinsing the wells with TBST, sulfo-tagged anti-TREM2 antibody was added in a serial dilution (4× dilution over 11 points) to the wells of the plate and incubated for one hour at room temperature. The wells were washed with TBST, and MSD Read Buffer (MSD, Cat. No. R92TC-3) was added to the wells. Signal from the samples were measured using an MSD Meso Sector 5600 device. EC50 values for each antibody was determined by four-parameter variable slope non-linear regression. Reference antibodies #1 and #2 correspond to 4C5 and 6E7 described in WO 2018/195506. Reference antibody #3 corresponds to AL2p-58 described in WO 2019/028292. The variable regions of reference antibody #1 are represented by SEQ ID NOS:73 and 74.

sTREM2 in cynomolgus CSF = target: T4, sTREM2 in cynomolgus CSF; experiment: MSD assay, sTREM2 from CSF captured by biotinylated goat anti-human TREM2, sulfo-tagged test antibody titrated
Protocol: as §3, with “74. The variable regions of reference antibody #2 are represented by SEQ ID NOS:75 and 76. The variable regions of reference antibody #3 are represented by SEQ ID NOS:77 and 78.” for “74.”

Human TREM2 peptide (aa 129-172) (human), sequence (peptide, as listed by the source): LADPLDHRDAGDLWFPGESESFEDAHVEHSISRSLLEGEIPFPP
Mouse TREM2 peptide (aa 131-169) (mouse), sequence (Q99NH8 131-169 limits assumed, form in doubt): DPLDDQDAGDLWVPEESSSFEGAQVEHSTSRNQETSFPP

Molecule	A450 fold over background (background = isotype control) [4]	Kd [6]	EC50 (sTREM2 in cynomolgus CSF)	other results
CL0020188 (antibody, V domains shown, also called Clone CL0020188) VH: EVKLLDSGGGLVQAGGSLRLSCAGSGFTFTDFYMSWIRQPPGKAPEWLGVIRNKANGYTAGYNPSVKGRFTISRDNTQNILYLQMNTLRAEDTAIYYCARLTYGFDYWGQGVMVTVSS VL: DIVMTQGALPNPVPSGESASITCQSSKSLLHSNGKTYLNWYLQRPGQSPQLLIYWMSTRASGVSDRFSGSGSGTDFTLKISSVEAEDVGVYYCQQFLEYPFTFGSGTKLEIK	0.9 fold	–	–	A450 fold over background (background = isotype control) [3]: 3 fold; Kd [5]: 2 nM
CL0020188-4 (antibody, V domains shown, Humanized variant of CL0020188) VH: EVQLVESGGGLVQPGGSLRLSCAGSGFTFTDFYMSWVRQAPGKGPEWLSVIRNKANGYTAGYNPSVKGRFTISRDNSKNTLYLQMNSLRAEDTAVYYCARLTYGFDYWGQGTLVTVSS VL: DIVMTQTPLSLPVTPGEPASISCQSSKSLLHSTGKTYLNWYLQKPGQSPQLLIYWMSTRASGVPDRFSGSGSGTDFTLKISRVEAEDVGVYYCQQFLEYPFTFGQGTKVEIK	–	1.5 nM	0.28 nM	–
CL0020123-5 (antibody, V domains shown, Humanized variant of CL0020123) VH: QVQLVQSGAEVKKPGASVKVSCKASGFSIEDFYIHWVRQAPGQGLEWMGWIDPEQGESKYAPKFQGRATITADTSTSTAYMELSSLRSEDTAVYYCHADHGNYGSTMDYWGQGTLVTVSS VL: DIQMTQSPSSLSASVGDRVTITCHASQHINVWLSWYQQKPGKAPKLLIYKASNLHTGVPSRFSGSGSGTDFTLTISSLQPEDFATYYCQQGQTYPRTFGQGTKVEIK	–	9.3 nM	49.4 nM	–
CL0020123 (antibody, V domains shown, also called Clone CL0020123) VH: EVQLQQSGAELVRSGASVKLSCTASGFSIEDFYIHWVKQRPEQGLEWIGWIDPENGDSKYAPKFQGKATMTADTSSNTAYLHLSSLTSEDTAVYYCHADHGNYGSTMDYWGQGTSVTVSS VL: DIQMNQSPSSLSASLGDTVTITCHASQHINVWLSWYQQKPGDHPKLLIYKASNLHTGVPSRFSGSGSGTGFTLTISSLQPEDIATYYCQQGQTYPRTFGGGTKLEIK	0.9 fold	–	–	Kd [5]: 5.7 nM
CL0020123-7 (antibody, V domains shown, Humanized variant of CL0020123) VH: QVQLVQSGAEVKKPGASVKVSCKASGFSIEDFYIHWVRQAPGQGLEWMGWIDPENGESKYAPKFQGRVTITADTSTSTAYMELSSLRSEDTAVYYCHADHGNYGSTMDYWGQGTLVTVSS VL: DIQMTQSPSSLSASVGDRVTITCHASQHINVWLSWYQQKPGKAPKLLIYKASNLHTGVPSRFSGSGSGTDFTLTISSLQPEDFATYYCQQGQTYPRTFGQGTKVEIK	–	9.4 nM	16.9 nM	–
Reference antibody #1 (antibody, V domains shown, also called 4C5 (WO 2018/195506)) VH: EVQLVQSGAEVKKPGESLKISCKGSGHSFTNYWIAWVRQMPGKGLEWMGIIYPGDSDTRYSPSFQGQVTISADKSISTAYLQWSSLKASDTAVYFCARQRTFYYDSSGYFDYWGQGTLVTVSS VL: DIQMTQSPSSVSASVGDRVTITCRASQGISNWLAWYQQKPGKAPKLLIYAASSLQVGVPLRFSGSGSGTDFTLTISSLQPEDFATYYCQQADSFPRNFGQGTKLEIK	–	14 nM	81.6 nM	–

The next lines start with results.

A450 fold over background (background = isotype control) [4]	Kd [6]	EC50 (sTREM2 in cynomolgus CSF)	Molecule	other results
1 fold	–	–	Isotype control (antibody)	A450 fold over background (background = isotype control) [1]: 1 fold; A450 fold over background (background = isotype control) [2]: 1 fold; A450 fold over background (background = isotype control) [3]: 1 fold
–	2.8 nM	0.72 nM	CL0020188-7 (antibody, V domains shown, Humanized variant of CL0020188) VH: EVQLVESGGGLVQPGGSLRLSCAASGFTFTDFYMSWVRQAPGKGLEWVSVIRNKANAYTAGYNPSVKGRFTISRDNSKNTLYLQMNSLRAEDTAVYYCARLTYGFDYWGQGTLVTVSS VL: DIVMTQTPLSLPVTPGEPASISCQSSKSLLHSTGKTYLNWYLQKPGQSPQLLIYWMSTRASGVPDRFSGSGSGTDFTLKISRVEAEDVGVYYCQQFLEYPFTFGQGTKVEIK	–
–	9.2 nM	6.5 nM	Reference antibody #2 (antibody, V domains shown, also called 6E7 (WO 2018/195506)) VH: EVQLVQSGAEVKKPGESLKISCKGSGYSFTSYWIAWVRQMPGKGLEWMGIIYPGDSDTRYSPSFQGQVTISADKSISTAYLQWSSLKASDTAMYFCARQRTFYYDSSDYFDYWGQGTLVTVSS VL: DIQMTQSPSSVSASVGDRVTITCRASQGISSWLAWYQQKPGKAPKLLIYAASSLQNGVPSRFSGSGSGTDFTLTISSLQPEDFATYFCQQADSFPRTFGQGTKLEIK	–
–	9.2 nM	33.7 nM	Reference antibody #3 (antibody, V domains shown, also called AL2p-58 (WO 2019/028292)) VH: QVQLVQSGAEVKKPGASVKVSCKASGYAFSSQWMNWVRQAPGQRLEWIGRIYPGGGDTNYAGKFQGRVTITADTSASTAYMELSSLRSEDTAVYYCARLLRNQPGESYAMDYWGQGTLVTVSS VL: DVVMTQSPDSLAVSLGERATINCRSSQSLVHSNRYTYLHWYQQKPGQSPKLLIYKVSNRFSGVPDRFSGSGSGTDFTLKISRVEAEDVGVYYCSQSTRVPYTFGQGTKLEIK	–
